From publication PMC5772516 come the findings set out here.

Experiment [1] concerns the target vascular endothelial growth factor (VEGF165) (human). The experiment is described as follows: solid-state nanopore translocation; 20 nM VEGF, pH 7.6, V = +500 mV, ~5.5 nm pore in 12 nm SiNx; 1 M KCl, 50 mM phosphate buffer, 5 mM EDTA, 22.0 ± 0.5 °C; then 0.5 mM TCEP added in the same pore (events converge into one lower-amplitude group, 92%).
For experiment [2] the target is unchanged. The experiment is described as follows: SDS-PAGE; VEGF solution before reduction (non-reducing).
Experiment [3] has the same target. Briefly: solid-state nanopore translocation; 0.2 nM to 100 nM VEGF, pH 7.2, V = −500 mV, ~5–6.5 nm pore; 1 M KCl, 50 mM phosphate buffer, 5 mM EDTA, 22.0 ± 0.5 °C; 0.5 mM TCEP added afterwards shifts the events to single-level group A (71%).

“And” between values parts separate entries of the source, which are not always exact repeats. Identical values can stand only once.

For orientation: stoichiometry N means the number of molecules, sites or subunits per partner or assembly. As for “vascular endothelial growth factor (VEGF165) (natural protein)”, in experiment [1], the stoichiometry N is 2 and 3. Besides, the stoichiometry N in experiment [2] was 2 and 3. In experiment [3], the percent of translocation events in group B (dimer) at 20 nM amounted to 12%; the percent of translocation events in level B and B/A (dimeric state) at 0.2 nM was determined as 6%; the percent of translocation events in level B and B/A (dimeric state) at 100 nM turned out to be 59%; the percent of translocation events with a B to A multi-level pattern at 20 nM is 28%. Moreover, the stoichiometry N in experiment [3] is 2.
